Here are results for one protein from publication doi:10.1101/2024.02.18.580885 (bioRxiv, 2024).

The data set deals with the molecule itself. Description: dynamic light scattering.

B1: TFIP11 N-TER (N-terminal region of Tuftelin Interacting Protein 11) (domain or fragment, human, UniProt Q9UBB9 1-350, looked up)
chain: MSLSHLYRDGEGRIDDDDDERENFEITDWDLQNEFNPNRQRHWQTKEEATYGVWAERDSDDERPSFGGKRARDYSAPVNFISAGLKKGAAEEAELEDSDDEEKPVKQDDFPKDFGPRKLKTGGNFKPSQKGFAGGTKSFMDFGSWERHTKGIGQKLLQKMGYVPGRGLGKNAQGIINPIEAKQRKGKGAVGAYGSERTTQSMQDFPVVDSEEEAEEEFQKELSQWRKDPSGSKKKPKYSYKTVEELKAKGRISKKLTAPQKELSQVKVIDMTGREQKVYYSYSQISHKHNVPDDGLPLQSQQLPQSGKEAKAPGFALPELEHNLQLLIDLTEQEIIQNDRQLQYERDMVV
Regarding B1, the binding result is on record as “binds”.
